Test results: US9255132B2, “Angiopoietin derived peptides” (Compugen Ltd., priority 2008, dated 2016)
Entries after “also recorded” stand apart in the source; their conditions may differ. Residues, ends and D or L forms follow the SMILES beside them.

Legend:
Settings in all cases: CM5 chip, 10-50 μM peptide
[1] = biological target: T1, recombinant human Ang1 (Homo sapiens, UniProt Q15389); assay: BIACORE (SPR) binding of peptides to immobilized recombinant Ang1
T1 construct: purchased R&D Systems 923-AN-025/CF
T1 sequence (Q15389 16-498): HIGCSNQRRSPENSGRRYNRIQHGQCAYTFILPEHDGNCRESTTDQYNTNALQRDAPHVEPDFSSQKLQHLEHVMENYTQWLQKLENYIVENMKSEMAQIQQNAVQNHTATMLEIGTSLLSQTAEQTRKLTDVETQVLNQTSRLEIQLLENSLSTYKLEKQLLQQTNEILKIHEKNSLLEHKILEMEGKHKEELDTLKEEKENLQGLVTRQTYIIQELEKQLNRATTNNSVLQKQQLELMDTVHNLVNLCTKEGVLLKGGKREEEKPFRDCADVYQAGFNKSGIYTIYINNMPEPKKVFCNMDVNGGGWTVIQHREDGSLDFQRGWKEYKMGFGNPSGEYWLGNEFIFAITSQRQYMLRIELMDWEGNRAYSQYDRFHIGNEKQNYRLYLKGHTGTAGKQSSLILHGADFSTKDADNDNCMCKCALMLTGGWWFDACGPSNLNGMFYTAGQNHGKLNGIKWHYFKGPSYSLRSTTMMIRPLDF
Text: (§1) The capability of CGEN-H2 [SEQ ID NO: 1], CGEN-H3 [SEQ ID NO: 2], CGEN-A8 [SEQ ID NO: 3], CGEN-H7 [SEQ ID NO: 4], CGEN-G4 [SEQ ID NO: 5], CGEN-G6 [SEQ ID NO: 6], CGEN-F9 [SEQ ID NO: 7], CGEN-F12 [SEQ ID NO: 8], CGEN-C6-30 [SEQ ID NO: 9], CGEN-All [SEQ ID NO: 10], and CGEN-G2 [SEQ ID NO: 11] to specifically bind to recombinant Ang1, Ang2, and Ang4 was investigated using the BIACORE technology, measuring protein-protein interaction and binding affinity (Wendler et al 2005, Anal Bioanal Chem, 381: 1056-1064). The technology is based on surface plasmon resonance (SPR), an optical phenomenon that enables detection of unlabeled interactants in real time. The SPR-based biosensors can be used in determination of active concentration, screening and characterization in terms of both affinity and kinetics.
(§2) Peptide-protein binding was analyzed using surface plasmon resonance. Analysis of the to interaction between CGEN-H2 [SEQ ID NO: 1], CGEN-H3 [SEQ ID NO: 2], CGEN-A8 [SEQ ID NO: 3], CGEN-H7 [SEQ ID NO: 4], CGEN-G4 [SEQ ID NO: 5], CGEN-G6 [SEQ ID NO: 6], CGEN-F9 [SEQ ID NO: 7], CGEN-F12 [SEQ ID NO: 8], CGEN-C6 [SEQ ID NO: 9], CGEN-A11 [SEQ ID NO: 10], and CGEN-G2 [SEQ ID NO: 11] peptides and recombinant human Ang1 carrier-free (R&D Systems, Cat#923-AN-025/CF, Lot#FHW1507031), human Ang2 carrier-free (R&D Systems, Cat#623-AN-025/CF, Lot#BNO0457121), and human Ang4 carrier-free (R&D Systems, Cat#964-AN-025/CF, Lot#ELM025121) was conducted using the BIAcore biosensor (Pharmacia Biosensor, Uppsala, Sweden). The recombinant Ang1, Ang2, and Ang4 were immobilized directly to a CM5 sensor chip. Solutions containing 10-50 μM of CGEN-H2 [SEQ ID NO: 1], CGEN-H3 [SEQ ID NO: 2], CGEN-A8 [SEQ ID NO: 3], CGEN-H7 [SEQ ID NO: 4], CGEN-G4 [SEQ ID NO: 5], CGEN-G6 [SEQ ID NO: 6], CGEN-F9 [SEQ ID NO: 7], CGEN-F12 [SEQ ID NO: 8], CGEN-C6 [SEQ ID NO: 9], CGEN-A11 [SEQ ID NO: 10], and CGEN-G2 [SEQ ID NO: 11] peptides were injected into the sample chamber of the BIACORE device at a rate of […] and the interaction was monitored using surface plasmon resonance.
(§3) Solutions containing different concentrations of CGEN-G6 [SEQ ID NO: 6], CGEN-F9 [SEQ ID NO: 7], CGEN-F12 [SEQ ID NO: 8], CGEN-A11 [SEQ ID NO: 10], and CGEN-G2 [SEQ ID NO: 11] peptides (as indicated in Table 2) were injected into the sample chamber of the BIACORE device at a rate of […] and the interaction was monitored using surface plasmon resonance. As a background, the solutions were also injected onto an empty flow cell with no immobilized ligand and the in binding levels achieved were subtracted. Data was analyzed using BIAevaluation software. The affinity constant of the interaction between CGEN-G6 [SEQ ID NO: 6], CGEN-F9 [SEQ ID NO: 7], CGEN-F12 [SEQ ID NO: 8], CGEN-C6 [SEQ ID NO: 9], CGEN-A11 [SEQ ID NO: 10], and CGEN-G2 [SEQ ID NO: 11] and Ang1, Ang2, or Ang4 was determined by direct kinetic analysis. The 1:1 Langmuir binding model was used to fit kinetic data.
(§4) Table 2 summarizes results of analysis of CGEN-G6 [SEQ ID NO: 6], CGEN-F9 [SEQ ID NO: 7], CGEN-F12 [SEQ ID NO: 8], CGEN-A11 [SEQ ID NO: 10], and CGEN-G2 [SEQ ID NO: 11] interaction with Ang1, Ang2, or Ang4. Kinetic measurements were done at the indicated concentration range, and they are presented as KD (M). CGEN-F12 [SEQ ID NO: 8] bound to Ang1 and Ang4 with high affinity. The specificity of this binding is not clear.

[2] = biological target: T2, human Ang2 (Homo sapiens, UniProt O15123); assay: BIACORE (SPR) binding of peptides to immobilized recombinant Ang2
T2 construct: purchased R&D Systems 623-AN-025/CF
T2 sequence (O15123 19-496): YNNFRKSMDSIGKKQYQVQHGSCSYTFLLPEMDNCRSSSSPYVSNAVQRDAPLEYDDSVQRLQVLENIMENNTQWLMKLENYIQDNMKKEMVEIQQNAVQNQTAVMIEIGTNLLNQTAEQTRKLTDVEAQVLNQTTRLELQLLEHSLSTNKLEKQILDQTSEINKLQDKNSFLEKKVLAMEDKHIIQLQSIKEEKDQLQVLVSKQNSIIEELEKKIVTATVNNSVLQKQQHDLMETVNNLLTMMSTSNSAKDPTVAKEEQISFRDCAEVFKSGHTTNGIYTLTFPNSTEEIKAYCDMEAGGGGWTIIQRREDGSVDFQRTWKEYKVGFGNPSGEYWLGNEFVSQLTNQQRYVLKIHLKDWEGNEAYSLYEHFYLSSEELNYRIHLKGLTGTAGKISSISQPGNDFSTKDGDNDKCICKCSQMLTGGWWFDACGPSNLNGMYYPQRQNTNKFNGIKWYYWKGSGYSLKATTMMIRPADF
Text: as §1, §2, §3, §4

[3] = biological target: T3, human Ang4 (Homo sapiens, UniProt Q9Y264); assay: BIACORE (SPR) binding of peptides to immobilized recombinant Ang4
T3 construct: purchased R&D Systems 964-AN-025/CF
T3 sequence (Q9Y264 25-503): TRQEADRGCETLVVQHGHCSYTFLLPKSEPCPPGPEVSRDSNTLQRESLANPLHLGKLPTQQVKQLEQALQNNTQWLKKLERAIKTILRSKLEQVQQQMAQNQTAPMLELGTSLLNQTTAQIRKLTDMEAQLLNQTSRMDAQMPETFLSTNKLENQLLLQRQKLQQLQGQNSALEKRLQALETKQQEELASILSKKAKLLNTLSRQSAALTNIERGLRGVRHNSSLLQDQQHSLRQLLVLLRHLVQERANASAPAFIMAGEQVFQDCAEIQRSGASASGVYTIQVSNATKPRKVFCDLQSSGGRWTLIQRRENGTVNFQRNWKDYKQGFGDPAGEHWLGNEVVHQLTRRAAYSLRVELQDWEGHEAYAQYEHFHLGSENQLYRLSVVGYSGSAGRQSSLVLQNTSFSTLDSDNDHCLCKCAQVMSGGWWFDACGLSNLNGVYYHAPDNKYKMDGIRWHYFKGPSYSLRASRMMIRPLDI
Text: as §1, §2, §3, §4

| Compound | binding to immobilized Ang1 (in words) [1] | binding to immobilized Ang2 (in words) [2] | binding to immobilized Ang4 (in words) [3] |
| --- | --- | --- | --- |
| LKEEKENLQGLVTRQTYIIQELEKQLNRAT (Ac-LKEEKENLQGLVTRQTYIIQELEKQLNRAT-NH2) [CGEN-H2, amino acid residues 212-241 of angiopoietin 1] | none or low binding | none or low binding | none or low binding |
| QLQVLVSKQNSIIEEL (Ac-QLQVLVSKQNSIIEEL-NH2) [CGEN-G4, amino acid residues 215-230 of angiopoietin 2] | none or low binding | none or low binding | none or low binding |
| NEILKIHEKNSLLEHKILEMEGKHK (Ac-NEILKIHEKNSLLEHKILEMEGKHK-NH2) [CGEN-H7, amino acid residues 182-206 of angiopoietin 1] | none or low binding | none or low binding | none or low binding |
| CC[C@H](C)[C@H](NC(=O)[C@H](CO)NC(=O)[C@H](C)NC(=O)[C@H](CC(C)C)NC(=O)[C@H](CCC(=O)O)NC(=O)[C@H](CCC(=O)O)NC(=O)[C@H](CCC(N)=O)NC(C)=O)C(=O)N[C@@H](CC(C)C)C(=O)N[C@@H](CO)C(=O)N[C@@H](CCCCN)C(=O)N[C@@H](CCCCN)C(=O)N[C@@H](C)C(=O)N[C@@H](CCCCN)C(=O)N[C@@H](CC(C)C)C(=O)N[C@@H](CC(C)C)C(=O)N[C@@H](CC(N)=O)C(=O)N[C@H](C(=O)N[C@@H](CC(C)C)C(=O)N[C@@H](CO)C(=O)N[C@@H](CCCNC(=N)N)C(=O)N[C@@H](CCC(N)=O)C(=O)N[C@@H](CO)C(=O)N[C@@H](C)C(=O)N[C@@H](C)C(=O)N[C@@H](CC(C)C)C(=O)N[C@H](C(=O)N[C@@H](CC(N)=O)C(=O)N[C@H](C(=O)N[C@@H](CCC(=O)O)C(=O)N[C@@H](CCCNC(=N)N)C(=O)NCC(=O)N[C@@H](CC(C)C)C(=O)N[C@@H](CCCNC(=N)N)C(=O)NCC(=O)N[C@H](C(=O)N[C@@H](CCCNC(=N)N)C(N)=O)C(C)C)[C@@H](C)CC)[C@@H](C)O)[C@@H](C)O [CGEN-F9] (Ac-QEELASILSKKAKLLNTLSRQSAALTNIERGLRGVR-NH2) | capable of binding | capable of binding | capable of binding |
| LMDTVHNLVNL (Ac-LMDTVHNLVNL-NH2) [CGEN-A8, amino acid residues 254-264 of angiopoietin 1] | none or low binding | none or low binding | none or low binding |
| TDMEAQLLNQTSRMDAQM (Ac-TDMEAQLLNQTSRMDAQM-NH2) [CGEN-C6, amino acid residues 150-167 of angiopoietin 4] | did not bind | not sufficiently strong | did not bind |
| TNNSVLQKQQL (Ac-TNNSVLQKQQL-NH2) [CGEN-H3, amino acid residues 242-252 of angiopoietin 1] | none or low binding | none or low binding | none or low binding |
| CC(=O)N[C@@H](CCC(N)=O)C(=O)N[C@@H](Cc1c[nH]cn1)C(=O)N[C@@H](CO)C(=O)N[C@@H](CC(C)C)C(=O)N[C@@H](CCCNC(=N)N)C(=O)N[C@@H](CCC(N)=O)C(=O)N[C@@H](CC(C)C)C(=O)N[C@@H](CC(C)C)C(=O)N[C@H](C(=O)N[C@@H](CC(C)C)C(=O)N[C@@H](CC(C)C)C(=O)N[C@@H](CCCNC(=N)N)C(=O)N[C@@H](Cc1c[nH]cn1)C(=O)N[C@@H](CC(C)C)C(=O)N[C@H](C(=O)N[C@@H](CCC(N)=O)C(=O)N[C@@H](CCC(=O)O)C(=O)N[C@@H](CCCNC(=N)N)C(=O)N[C@@H](C)C(=O)N[C@@H](CC(N)=O)C(=O)N[C@@H](C)C(=O)N[C@@H](CO)C(=O)N[C@@H](C)C(N)=O)C(C)C)C(C)C [CGEN-F12] (Ac-QHSLRQLLVLLRHLVQERANASA-NH2) | capable of binding; also recorded: high affinity | capable of binding | capable of binding; also recorded: high affinity |
